Measured values as given in patent US20240117334A1, “FACTOR B PROTEASES” (Vertex Pharmaceuticals Incorporated, priority 2021, published 2024).
Residue numbers refer to the chain shown, from its start. In names and notes the source's numbering stands.

B1: chymase C22S (enzyme)
chain: IIGGTESKPHSRPYMAYLEIVTSNGPSKFCGGFLIRRNFVLTAAHCAGRSITVTLGAHNITEEEDTWQKLEVIKQFRHPKYNTSTLHHDIMLLKLKEKASLTLAVGTLPFPSQFNFVPPGRMCRVAGWGRTGVLKPGSDTLQEVKLRLMDPQACSHFRDFDHNLQLCVGNPRKTKSAFKGDSGGPLLCAGVAQGIVSYGRSDAKPPAVFTRISHYRPWINQILQAN
B2: chymase C22S/F41V/L99F/G151R/F173K/R217S/A226R (enzyme)
chain: B1 chain with F29V, L86F, G137R, F157K, R200S, A207R
B3: chymase C22S/F41V/L99H/G151R/F173L/Y215R/R217T/A226R (enzyme)
chain: B1 chain with F29V, L86H, G137R, F157L, Y198R, R200T, A207R
B4: chymase F41V/L99H/G151V/F173Y/Y215K/R217G/A226R (enzyme)
chain: B1 chain with S7C, F29V, L86H, G137V, F157Y, Y198K, R200G, A207R
B5: chymase C22S/F41V/L99W/G151L/F173K/R217S/A226R (enzyme)
chain: B1 chain with F29V, L86W, G137L, F157K, R200S, A207R
B6: chymase C22S/K192R/A226R (enzyme)
chain: B1 chain with K179R, A207R
B7: chymase C22S/A226R (enzyme)
chain: B1 chain with A207R
B8: chymase C22S/L99H/F173I/K192R/Y215K/R217T/S218I/A226R (enzyme)
chain: B1 chain with L86H, F157I, K179R, Y198K, R200T, S201I, A207R
B9: chymase C22S/F41I/L99W/G151L/F173K/R217S/A226R (enzyme)
chain: B1 chain with F29I, L86W, G137L, F157K, R200S, A207R
B10: chymase C22S/F41R/L99G/G151T/F173Y/Y215R/R217M/A226R (enzyme)
chain: B1 chain with F29R, L86G, G137T, F157Y, Y198R, R200M, A207R
B11: chymase C22S/F41R/L99H/G151T/F173Y/Y215K/R217M/A226R (enzyme)
chain: B1 chain with F29R, L86H, G137T, F157Y, Y198K, R200M, A207R
B12: chymase C22S/F41R/L99Y/G151T/F173K/R217S/A226R (enzyme)
chain: B1 chain with F29R, L86Y, G137T, F157K, R200S, A207R
B13: chymase C22S/L99H/F173Y/K192R/S218L/A226R (enzyme)
chain: B1 chain with L86H, F157Y, K179R, S201L, A207R
B14: chymase C22S/L99Y/F173Y/K192R/S218L/A226R (enzyme)
chain: B1 chain with L86Y, F157Y, K179R, S201L, A207R
B15: chymase C22S/F173Y/D175N/A226R (enzyme)
chain: B1 chain with F157Y, D159N, A207R
B16: chymase C22S/F41R/L99H/G151A/F173S/Y215K/R217T/A226R (enzyme)
chain: B1 chain with F29R, L86H, G137A, F157S, Y198K, R200T, A207R
B17: chymase C22S/F41L/L99H/G151T/F173Y/Y215K/A226R (enzyme)
chain: B1 chain with F29L, L86H, G137T, F157Y, Y198K, A207R
B18: chymase C22S/F41R/L99H/G151T/F173Y/Y215K/A226R (enzyme)
chain: B1 chain with F29R, L86H, G137T, F157Y, Y198K, A207R
B19: chymase C22S/F41G/L99H/G151T/F173Y/Y215K/A226R (enzyme)
chain: B1 chain with F29G, L86H, G137T, F157Y, Y198K, A207R
B20: chymase C22S/F41R/L99H/F173Y/Y215K/A226R (enzyme)
chain: B1 chain with F29R, L86H, F157Y, Y198K, A207R
B21: chymase C22S/F41V/L99H/F173Y/Y215K/A226R (enzyme)
chain: B1 chain with F29V, L86H, F157Y, Y198K, A207R
B22: chymase C22S/F41G/L99H/F173Y/Y215K/A226R (enzyme)
chain: B1 chain with F29G, L86H, F157Y, Y198K, A207R
B23: chymase C22S/F41R/L99H/G151T/F173L/Y215K/A226R (enzyme)
chain: B1 chain with F29R, L86H, G137T, F157L, Y198K, A207R
B24: chymase C22S/F41V/L99H/G151T/F173L/Y215K/A226R (enzyme)
chain: B1 chain with F29V, L86H, G137T, F157L, Y198K, A207R
B25: chymase C22S/F41G/L99H/G151T/F173L/Y215K/A226R (enzyme)
chain: B1 chain with F29G, L86H, G137T, F157L, Y198K, A207R
B26: chymase C22S/F41R/L99H/F173L/Y215K/A226R (enzyme)
chain: B1 chain with F29R, L86H, F157L, Y198K, A207R
B27: chymase C22S/F41V/L99H/G151T/F173Y/Y215K/A226R (enzyme)
chain: B1 chain with F29V, L86H, G137T, F157Y, Y198K, A207R
B28: chymase C22S/F41L/L99H/F173Y/Y215K/A226R (enzyme)
chain: B1 chain with F29L, L86H, F157Y, Y198K, A207R
B29: chymase C22S/F41L/L99H/G151T/F173L/Y215K/A226R (enzyme)
chain: B1 chain with F29L, L86H, G137T, F157L, Y198K, A207R
B30: chymase C22S/F41L/L99H/F173L/Y215K/A226R (enzyme)
chain: B1 chain with F29L, L86H, F157L, Y198K, A207R
B31: chymase C22S/F41V/L99H/F173L/Y215K/A226R (enzyme)
chain: B1 chain with F29V, L86H, F157L, Y198K, A207R
B32: chymase C22S/F41G/L99H/F173L/Y215K/A226R (enzyme)
chain: B1 chain with F29G, L86H, F157L, Y198K, A207R
B33: chymase C22S/L99R/K192R/S218L/A226R (enzyme)
chain: B1 chain with L86R, K179R, S201L, A207R
B34: chymase C22S/L99R/F173Y/S218L/A226R (enzyme)
chain: B1 chain with L86R, F157Y, S201L, A207R
B35: chymase C22S/L99R/F173Y/K192R/A226R (enzyme)
chain: B1 chain with L86R, F157Y, K179R, A207R
B36: chymase C22S/K93Q/G119D/F173S/K192R/A226R (enzyme)
chain: B1 chain with K80Q, G106D, F157S, K179R, A207R
B37: chymase C22S/K111E/F173L/Y215H/A226R (enzyme)
chain: B1 chain with K98E, F157L, Y198H, A207R
B38: chymase C22S/F173L/Y215H/A226R (enzyme)
chain: B1 chain with F157L, Y198H, A207R
B39: chymase C22S/M135T/P150S/S152G/Q166H/D175N/A190T/A226R (enzyme)
chain: B1 chain with M122T, P136S, S138G, Q152H, D159N, A177T, A207R
B40: chymase E21G/C22S/R61H/M135T/F173Y/D175N/A209V/A226R (enzyme)
chain: B1 chain with E6G, R49H, M122T, F157Y, D159N, A192V, A207R
B41: chymase C22S/P38Q/H100P/L116R/F123L/Q180H/A226R/R235S (enzyme)
chain: B1 chain with P26Q, H87P, L103R, F110L, Q165H, A207R, R216S
B42: chymase C22S/V138I/L160V/S189T/A226R (enzyme)
chain: B1 chain with V125I, L146V, S176T, A207R
B43: chymase C22S/V138L/A226R (enzyme)
chain: B1 chain with V125L, A207R
B44: chymase C22S/L160V/S189T/A226R (enzyme)
chain: B1 chain with L146V, S176T, A207R
B45: chymase C22S/S189T/A226R (enzyme)
chain: B1 chain with S176T, A207R
B46: chymase C22S/S218I/A226R (enzyme)
chain: B1 chain with S201I, A207R
B47: chymase C22S/F173Y/A226R (enzyme)
chain: B1 chain with F157Y, A207R

The binders below were run against EGVD/AE-ACT (assay: reaction of the protease with the serpin bait EGVD/AE-ACT).

Binder | k*app (second order rate constant)
B1 | 30.2
B2 | 652
B3 | 1130
B4 | 649
B5 | 1360
B6 | 147
B7 | 77
B8 | 1040
B9 | 1730
B10 | 773
B11 | 1500
B12 | 684

What follows are binders tested against alpha-2-marcroglobin (A2M) (UniProt P01023) (assay: inhibition of the protease by the plasma inhibitor).
Sequence of alpha-2-marcroglobin (A2M) (P01023 24-1474): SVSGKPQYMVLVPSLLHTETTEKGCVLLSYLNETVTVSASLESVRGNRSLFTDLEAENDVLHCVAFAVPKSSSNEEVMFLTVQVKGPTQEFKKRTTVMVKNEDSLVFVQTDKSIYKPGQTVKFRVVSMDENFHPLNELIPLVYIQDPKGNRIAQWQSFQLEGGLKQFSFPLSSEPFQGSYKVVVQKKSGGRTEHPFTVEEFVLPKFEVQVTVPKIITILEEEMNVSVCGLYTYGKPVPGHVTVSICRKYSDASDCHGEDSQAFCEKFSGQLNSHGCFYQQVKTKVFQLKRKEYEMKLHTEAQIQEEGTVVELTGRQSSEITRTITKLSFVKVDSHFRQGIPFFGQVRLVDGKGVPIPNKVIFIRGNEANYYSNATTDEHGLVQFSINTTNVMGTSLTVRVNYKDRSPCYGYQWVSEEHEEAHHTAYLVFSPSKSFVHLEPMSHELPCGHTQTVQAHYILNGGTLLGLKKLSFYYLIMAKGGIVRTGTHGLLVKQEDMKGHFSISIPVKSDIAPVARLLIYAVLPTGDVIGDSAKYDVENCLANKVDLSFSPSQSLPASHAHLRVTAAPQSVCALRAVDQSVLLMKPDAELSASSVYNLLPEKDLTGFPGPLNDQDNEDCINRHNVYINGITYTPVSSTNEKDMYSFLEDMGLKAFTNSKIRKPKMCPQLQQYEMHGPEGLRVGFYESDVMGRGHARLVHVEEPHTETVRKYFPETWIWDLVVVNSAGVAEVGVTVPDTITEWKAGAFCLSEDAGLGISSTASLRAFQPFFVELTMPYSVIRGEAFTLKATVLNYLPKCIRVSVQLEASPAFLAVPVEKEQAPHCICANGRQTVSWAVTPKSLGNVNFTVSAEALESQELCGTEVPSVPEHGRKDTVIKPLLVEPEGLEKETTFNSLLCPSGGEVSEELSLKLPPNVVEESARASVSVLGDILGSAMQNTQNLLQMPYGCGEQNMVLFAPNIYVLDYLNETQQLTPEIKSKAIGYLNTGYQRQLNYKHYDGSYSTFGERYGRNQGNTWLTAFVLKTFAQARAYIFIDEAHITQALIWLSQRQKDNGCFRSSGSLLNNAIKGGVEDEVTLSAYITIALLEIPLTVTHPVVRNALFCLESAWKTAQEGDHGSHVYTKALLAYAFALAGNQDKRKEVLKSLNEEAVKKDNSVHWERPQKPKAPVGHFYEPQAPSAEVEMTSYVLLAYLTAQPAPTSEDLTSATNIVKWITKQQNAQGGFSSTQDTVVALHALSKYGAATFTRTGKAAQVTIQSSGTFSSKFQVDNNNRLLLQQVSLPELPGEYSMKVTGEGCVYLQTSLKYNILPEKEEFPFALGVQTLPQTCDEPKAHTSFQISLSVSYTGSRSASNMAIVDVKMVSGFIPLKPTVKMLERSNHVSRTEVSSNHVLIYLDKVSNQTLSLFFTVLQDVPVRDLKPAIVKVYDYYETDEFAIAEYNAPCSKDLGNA

Binder | kapp [M⁻¹ s⁻¹]
B5 | 329
B7 | 812
B13 | 356
B14 | 3130
B15 | 645

Each binder was assayed against Human Factor B (human) (UniProt P00751) (assay: cell-based or functional assay).
Sequence of Human Factor B (human) (P00751 26-764 limits assumed): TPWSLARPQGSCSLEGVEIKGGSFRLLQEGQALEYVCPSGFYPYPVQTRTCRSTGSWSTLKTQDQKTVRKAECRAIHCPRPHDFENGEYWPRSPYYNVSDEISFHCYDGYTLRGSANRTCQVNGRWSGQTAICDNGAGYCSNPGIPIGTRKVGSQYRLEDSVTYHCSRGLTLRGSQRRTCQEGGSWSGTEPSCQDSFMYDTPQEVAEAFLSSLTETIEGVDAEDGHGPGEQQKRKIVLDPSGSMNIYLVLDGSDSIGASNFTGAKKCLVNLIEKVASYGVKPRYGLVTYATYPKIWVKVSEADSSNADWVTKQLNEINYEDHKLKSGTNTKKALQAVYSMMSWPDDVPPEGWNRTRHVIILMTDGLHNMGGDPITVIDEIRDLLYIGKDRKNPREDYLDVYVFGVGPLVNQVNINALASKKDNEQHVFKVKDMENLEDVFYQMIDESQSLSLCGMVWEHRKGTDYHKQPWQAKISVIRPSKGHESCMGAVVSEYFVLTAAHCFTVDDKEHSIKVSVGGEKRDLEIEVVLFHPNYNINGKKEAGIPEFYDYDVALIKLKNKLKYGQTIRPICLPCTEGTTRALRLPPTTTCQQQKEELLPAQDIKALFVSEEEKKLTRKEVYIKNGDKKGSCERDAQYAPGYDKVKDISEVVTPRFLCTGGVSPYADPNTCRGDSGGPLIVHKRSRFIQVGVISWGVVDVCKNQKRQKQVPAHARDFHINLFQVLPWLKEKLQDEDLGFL

Binder | fB Cleavage EC50 [µM] | fB Cleavage, 64% A2M-depl plasma EC50 [µM] | fB Cleavage, 64% plasma EC50 [µM] | fB Cleavage, 80% plasma EC50 [µM]
B16 | 2.25 | 2.88 | 3.4 | –
B17 | 3.23 | – | – | –
B18 | 3.22 | – | – | –
B19 | 6.6 | – | – | –
B20 | 4.8 | – | – | –
B21 | 6.06 | – | – | –
B22 | 6.65 | – | – | –
B23 | 4.8 | – | – | –
B24 | 5.42 | – | – | –
B25 | 11.5 | – | – | –
B26 | 6.64 | – | – | –
B27 | 5.33 | – | – | –
B28 | 3.45 | – | – | –
B29 | 4.17 | – | – | –
B30 | 7.89 | – | – | –
B31 | 8.73 | – | – | –

Binder | fB Cleavage EC50 [µM] | fB Cleavage, 64% A2M-depl plasma EC50 [µM] | fB Cleavage, 64% plasma EC50 [µM] | fB Cleavage, 80% plasma EC50 [µM]
B32 | 10.2 | – | – | –
B33 | 7.51 | – | – | –
B34 | 0.546 | – | – | –
B35 | 3.28 | – | – | –
B36 | 7.77 | – | – | –
B37 | 9.01 | – | – | –
B38 | 5.99 | – | – | –
B39 | 3.16 | – | – | –
B40 | 1.26 | – | – | –
B41 | 3.74 | – | – | –
B42 | 7.13 | – | – | –
B43 | 3.48 | – | – | –
B44 | 6.64 | – | – | –
B45 | 7.98 | – | – | –
B46 | 0.83 | – | – | –
B47 | 0.65 | – | – | 21
